Measured values taken from patent US20180256645A1.

Molecular target: murine/mouse full length CXCR6 (chemokine receptor 6), expressed on transduced murine CD8+ T cells (murine/mouse) (UniProt Q9EQ16)
Experiment: cell-based or functional assay

Sequence of UniProt Q9EQ16 (Q9EQ16 1-350): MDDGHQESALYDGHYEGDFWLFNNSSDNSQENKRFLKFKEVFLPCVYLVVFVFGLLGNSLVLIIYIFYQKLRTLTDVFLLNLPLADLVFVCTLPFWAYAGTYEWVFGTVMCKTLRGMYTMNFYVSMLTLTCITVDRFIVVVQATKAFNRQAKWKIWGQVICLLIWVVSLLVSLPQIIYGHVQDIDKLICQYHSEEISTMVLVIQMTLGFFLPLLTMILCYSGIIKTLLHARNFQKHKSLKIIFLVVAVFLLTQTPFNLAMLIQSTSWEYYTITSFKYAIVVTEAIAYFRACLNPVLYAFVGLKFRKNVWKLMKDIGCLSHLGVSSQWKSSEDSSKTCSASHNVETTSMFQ

- internalisation and recycling of CXCR6 (live confocal fluorescence microscopy): 30 min
Substance: recombinant CXCL16 (SEQ ID NO: 9) (Peprotech, Hamburg) (from UniProt Q8BSU2 27-114) (ligand)
